The values below come from the supplement of paper PMC7877785.

± gives the uncertainty stated by the source.

The nature of this data set: self-splicing fitness, log relative to wild type (ln ratio); higher = more splicing; Tetrahymena group I intron in knt gene, E. coli kanamycin selection, DiMSum; sequences stand for … in CUCUCU…GGAGGGAAAAGUUAUCAGGCAUGCACCUGGUAGCUAGUCUUUAAACCAAUAGAUUGCAUCGGUUUAAAAGGCAAGACCGUCAAAUUGCGGGAAAGGGGUCAACAGCCGUUCAGUACCAAGUCUCAGGGGAAACUUUGAGAUGGCCUUGCAAAGGGUAUGGUAAUAAGCUGACGGACAUGGUCCUAACCACGCAGCCAAGUCCUAAGUCAACAGAUCUUCUGUUGAUAUGGAUGCAGUUCACAGACUAAAUGUCGGUCGGGGAAGAUGUAUUCUUCUCAUAAGAUAUAGUCGGACCUCUCCUUAAUGGGAGCUAGCGGAUGAAGUGAUGCAACACUGGAGCCGCUGGGAACUAAUUUGUAUGCGAAAGUAUAUUGAUUAGUUUUGGAGUACUCGUGGUCG
A digest of the protocol: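 The eight P1ex-region nucleotides of an intron in the knt kanamycin-resistance gene on pET-22b(+) were all randomised and the library put into E. coli BL21(DE3). Six replicate transformations were grown overnight at 37°C or 30°C on LB agar with or without 25 μg/mL kanamycin, together with 100 μg/mL carbenicillin, 50 μM IPTG and 0.2% rhamnose. Colonies were pooled and amplicon-sequenced on an Illumina HiSeq 2500. Fitness from DiMSum is the error-weighted combination of wild-type-normalised replicate fold changes, kanamycin over none.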

AUCUAGCAAUAUUACGAUGU: the “self-splicing fitness (ln)” value by setting is: (30 °C) -0.781 ± 0.08; (37 °C) -0.0281 ± 0.11.
For AUCUAGCAAUAUUACGAUUA, in that order: -0.971 ± 0.11 and -0.836 ± 0.11.
For AUCUAGCAAUAUUACGCACC, in that order: -0.201 ± 0.21 and -0.886 ± 0.38.
For AUCUAGCAAUAUUACGCCGA, in that order: -0.962 ± 0.17 and -0.198 ± 0.19.
For AUCUAGCAAUAUUACGCGCA, the “self-splicing fitness (ln)” value is, setting by setting: (30 °C) -0.448 ± 0.1; (37 °C) -0.485 ± 0.11.
For AUCUAGCAAUAUUACGCGUG, in that order: -1.23 ± 0.1 and -1.01 ± 0.12.
For AUCUAGCAAUAUUACGCUAU, in that order: -3.15 ± 0.21 and -1.49 ± 0.14.
In the case of AUCUAGCAAUAUUACGGAUG, the “self-splicing fitness (ln)” value runs as follows: (30 °C) -2.12 ± 0.12; (37 °C) 0.0806 ± 0.12.
For AUCUAGCAAUAUUACGGGCU, in that order: -2.22 ± 0.16 and -2.49 ± 0.23.
For AUCUAGCAAUAUUACGGUAG, in that order: -3.92 ± 0.28 and -2.13 ± 0.22.
For AUCUAGCAAUAUUACGGUGC, in that order: -3.09 ± 0.22 and -1.4 ± 0.21.
In the case of AUCUAGCAAUAUUACGUAUG, the “self-splicing fitness (ln)” value (30 °C) is -2.41 ± 0.13 and the “self-splicing fitness (ln)” value (37 °C) is -1.55 ± 0.17.
For AUCUAGCAAUAUUACGUCAG, in that order: -3.18 ± 0.2 and -2.34 ± 0.2.
For AUCUAGCAAUAUUACGUCUC, in that order: -2.8 ± 0.26 and -0.391 ± 0.22.
For AUCUAGCAAUAUUACGUGGC, in that order: -2.58 ± 0.23 and -2.92 ± 0.31.
For the sequence AUCUAGCAAUAUUACGUGUC, the “self-splicing fitness (ln)” value runs as follows: (30 °C) -3.9 ± 0.36; (37 °C) -2.64 ± 0.24.
For AUCUAGCAAUAUUACGUUCC, in that order: -1.16 ± 0.18 and -1.47 ± 0.25.
For AUGAAGCAAUAUUACGAAAU, in that order: -0.819 ± 0.07 and -0.46 ± 0.073.
For AUGAAGCAAUAUUACGAAGC, in that order: -3.46 ± 0.18 and -1.89 ± 0.19.
As for AUGAAGCAAUAUUACGAAUU, the “self-splicing fitness (ln)” value is -1.58 ± 0.084 (30 °C) and -1.25 ± 0.12 (37 °C).
For AUGAAGCAAUAUUACGACGA, in that order: 0.221 ± 0.18 and 0.67 ± 0.15.
As to AUGAAGCAAUAUUACGACGU, the “self-splicing fitness (ln)” value (30 °C) is 0.206 ± 0.076 and the “self-splicing fitness (ln)” value (37 °C) was 0.735 ± 0.088.
For AUGAAGCAAUAUUACGAUAU, in that order: -0.294 ± 0.066 and 0.229 ± 0.083.
For AUGAAGCAAUAUUACGAUUG, in that order: -2.6 ± 0.13 and -1.24 ± 0.14.
For AUGAAGCAAUAUUACGCACC, in that order: -0.272 ± 0.097 and 0.751 ± 0.18.
For the sequence AUGAAGCAAUAUUACGCCAA, the “self-splicing fitness (ln)” value runs as follows: (30 °C) -0.427 ± 0.086; (37 °C) 0.0636 ± 0.11.
For AUGAAGCAAUAUUACGCCGG, in that order: -0.936 ± 0.11 and 0.108 ± 0.18.
For AUGAAGCAAUAUUACGCCUG, in that order: -0.59 ± 0.092 and -0.209 ± 0.11.
As for AUGAAGCAAUAUUACGCCUU, the “self-splicing fitness (ln)” value runs as follows: (30 °C) -1.9 ± 0.16; (37 °C) -1.01 ± 0.14.
For AUGAAGCAAUAUUACGCUUG, in that order: -0.527 ± 0.09 and 0.363 ± 0.11.
For AUGAAGCAAUAUUACGGACU, in that order: 0.892 ± 0.12 and 0.27 ± 0.1.
Turning to AUGAAGCAAUAUUACGGAGU, the “self-splicing fitness (ln)” value runs as follows: (30 °C) -1.4 ± 0.089; (37 °C) -0.447 ± 0.094.
For AUGAAGCAAUAUUACGGCAA, in that order: 0.00287 ± 0.12 and 0.0978 ± 0.14.
For AUGAAGCAAUAUUACGGCAC, in that order: -0.455 ± 0.086 and 0.222 ± 0.14.
For AUGAAGCAAUAUUACGGCCA, in that order: 0.439 ± 0.11 and 0.466 ± 0.18.
As for AUGAAGCAAUAUUACGGGAC, the “self-splicing fitness (ln)” value was -2.09 ± 0.32 (30 °C) and -1.65 ± 0.43 (37 °C).
Regarding AUGAAGCAAUAUUACGGGCA, the “self-splicing fitness (ln)” value runs as follows: (30 °C) 0.212 ± 0.079; (37 °C) 0.459 ± 0.09.
For AUGAAGCAAUAUUACGGGUC, in that order: -3.75 ± 0.18 and -2.63 ± 0.23.
In the case of AUGAAGCAAUAUUACGGGUG, the “self-splicing fitness (ln)” value reads like this: (30 °C) -1.81 ± 0.088; (37 °C) -0.453 ± 0.098.
For AUGAAGCAAUAUUACGGGUU, in that order: -1.62 ± 0.11 and -1.07 ± 0.12.
For AUGAAGCAAUAUUACGUACG, in that order: -0.461 ± 0.13 and -0.446 ± 0.093.
For AUGAAGCAAUAUUACGUCAC, in that order: -2.97 ± 0.26 and -1.09 ± 0.18.
In the case of AUGAAGCAAUAUUACGUCCG, the “self-splicing fitness (ln)” value (30 °C) was -0.499 ± 0.062 and the “self-splicing fitness (ln)” value (37 °C) was 0.309 ± 0.086.
For AUGAAGCAAUAUUACGUCGA, in that order: -0.936 ± 0.1 and 0.22 ± 0.097.
For AUGAAGCAAUAUUACGUGUA, in that order: -1.75 ± 0.082 and -0.686 ± 0.093.
For AUGAAGCAAUAUUACGUUAG, in that order: -1.97 ± 0.08 and -0.415 ± 0.11.
Consider AUGAAGCAAUAUUACGUUCU, for which the “self-splicing fitness (ln)” value reads like this: (30 °C) -0.34 ± 0.076; (37 °C) 0.201 ± 0.092.
As for AUGCAGCAAUAUUACGAAAG, the “self-splicing fitness (ln)” value is -2.87 ± 0.23 (30 °C) and -3.15 ± 0.4 (37 °C).
For AUGCAGCAAUAUUACGAACG, in that order: -1.7 ± 0.16 and -0.0769 ± 0.12.
For AUGCAGCAAUAUUACGAUUC, in that order: -2.72 ± 0.14 and -0.939 ± 0.17.
For AUGCAGCAAUAUUACGCCUC, in that order: -2.55 ± 0.2 and -1.35 ± 0.14.
For the sequence AUGCAGCAAUAUUACGCGUC, the “self-splicing fitness (ln)” value runs as follows: (30 °C) -3.6 ± 0.2; (37 °C) -3.05 ± 0.16.
For AUGCAGCAAUAUUACGCGUU, in that order: -2.4 ± 0.088 and -2.7 ± 0.19.
On to AUGCAGCAAUAUUACGCUGC, for which the “self-splicing fitness (ln)” value (30 °C) is -4.54 ± 0.2 and the “self-splicing fitness (ln)” value (37 °C) is -3.94 ± 0.19.
On to AUGCAGCAAUAUUACGCUGU, for which the “self-splicing fitness (ln)” value runs as follows: (30 °C) -3.46 ± 0.21; (37 °C) -2.63 ± 0.45.
For AUGCAGCAAUAUUACGGGUG, in that order: -3.33 ± 0.14 and -1.62 ± 0.12.
For AUGCAGCAAUAUUACGGUAC, in that order: -2.35 ± 0.095 and -1.52 ± 0.14.
For AUGCAGCAAUAUUACGGUAG, in that order: -3.81 ± 0.16 and -2.4 ± 0.14.
For AUGCAGCAAUAUUACGGUCC, the “self-splicing fitness (ln)” value by setting is: (30 °C) -1.85 ± 0.16; (37 °C) -0.88 ± 0.17.
